Data published in the DeepSol protein solubility set.

Assay: soluble on expression in E. coli; label from the status in PepcDB or PDB records

Row | Sequence | soluble on expression in E. coli
1 | MISTNGITMQFGAKPLFENVSVKFGEGNRYGLIGANGSGKSTFMKILGGDLEQTAGEVAIENGVRLGKLRQDQFAYEDMRVLDVVMMGHTEMWAAMTERDAIYANPEATEDDYMKAAELEAKFAEYDGYTAEARAAELLSGVGISEDLHNAKMAEVAPGFKLRVLLAQALFSKPDVLLLDEPTNNLDINTIRWLEGVLNQYDSTMIIISHDRHFLNEVCTHMADLDYNTITIYPGNYDDYMLASAQSRERALKDNAKAKEKLQELQEFVARFSANKSKARQATSRLKQADKIKSEMVEVKPSTRQNPYIRFEADEKAKLHRQAVEVEKLAKRFETQLFKNLNFILEAGQRLAIIGPNGAGKSTLLKLLAGAYNPEYSDGLLPDEGTIKWAEKASVGYYPQDHENDFDVDMDLSEWMRQWGQEGDDEQVIRGTLGRLLFGSNDVVKKVKVLSGGEKGRMLYGKLLLLKPNVLVMDEPTNHMDMESIESLNMALEKYNGTLIFVSHDRQFVSSLATQIIELDGKGGYEHYLGDYESYLEKKGVA | not soluble
2 | MSLNAPQWLGAEGEKIAARHLAAKGYRIVARNYRFHRNEIDIIAFDGEALCFIEVKTRASLGKGHPAESVTRSKQKEIARAAAGYLASLDDPWITCRFDVIAVLALSIDERSIRKYEIEHIKAAFMVGDKGEGHHHHHH | soluble
3 | MKVYVVVPTYNESDNIVALMEKILAQRDNIHVLVVDDNSPDGTGEIAARMSSDNPRIHVLRRSGKMGLGSAYCDGFRVALRDGADFIIEMDADFSHDPATIPALLAATDKYDVVVGSRYLNGVSVVNWPIRRLMLSYFASVYTRFVTGLALRDCTSGFKCFRRRVIESVDLDTIRSDGYSFQIEMNYRCVERGFRVGEIPIIFIDRHAGSSKMSKKIVREAVLMVWKLKLGSLVKKLTRRGDRHAALEHHHHHH | soluble
4 | MGKKDKRSKLEGDDLAEAQQKGSFQLPSSNETAKLDASQWPLLLKNYDKLNVRTNHYTPHVEGVSPLKRDIKNYISSGFFNLDKPSNPSSHEVVSWIKRILRCEKTGHSGTLDPKVSGCLIVCIDRTTRLAKSQQGAGKEYICIFKLHEEVEDDRKVKQALEKLTGALFQRPPLISAVKRQLRIRTVYENKFIEYDPAQQMGIFNCICESGTYVRTICVHLGLILGCGGQMQELRRNRSGICDENENMVTMHDVLDAQYLLDTQKDESYMRHIVRPLEALLTQHKRVVVKDSCINAICYGAKILIPGILRYDDDIEVGKEIVIMSTKGEAICIAIAQMNTSTIASVDHGVVAKSKRVIMERDVYGRKWGLGPVASKKKQMVKDGLLDKFGKPNDTTPKSWAKEYVQTSTKKEVKKEETPDEEEEEAPKKKSKKSKKQESSDSDSD | not soluble
5 | MNIGKPRKLGKTIEDIEEGDSLSLTESIEDKDLLLYLGLTNDANPLYIQHDYAQKTEYEKPIVPSIMLMGIITSAISKHLPGPGSHVVNFSVNFVEPVFHYETLTFQLEVIKVDKMKDVITISVEAVNEQENRVLDAVVMVQPPQVTIDELTEKEGTLTYE | soluble
6 | MGSDKIHHHHHHMAFTSDSLAIFLAVLDAGSFSAAARKLGRVPSAVSMAIAQLEAELDLPLFDRATRKALPTNAALALEPQARQVICQLNLLDAQALQLHKGLEKRLTIAMAPELQTGRWSQPLEILAQAFPSLEVEVRSATQTEAIRLLHDGSVQLALVFERPGIDERESFLEAGSQLLVAVASPRHPAGQNSGSPLPEEAFAEQRQIIVASGKATGSDPRMVLSRRIWLTDSYLATLDLVQSGLGWAYLPQPLVEPLIASGALAEVRFDNMANRLRLWVDIIWIKSRPLGLGARRYLEVMRQLFEKEPPRA | not soluble
7 | MAHHHHHHMRVSPNSLSEAASQLEQDRERDFFRLLYIVDRARRFLSIPVGNVDWRLTCDCLDDMNHRYADTGFLLGFTGGYVLRNRAGRTLLSRFWFSMYLGLVFYDWELRRTTRAPALEYWNSICTVDTEVGRIARVLHTPARFYEAAPMSTAFSGGPPPLPRGSSSSPSPAPHGASVRDWLWRYVSDTMSSVLLMTLCSHLFEGSSWRHRTSDNVEVTALVINSRFFHWKVFESCQVQRNETTEYNISLKWFPSFAASDSLRRSFQCRELILERSTLGGRLWYRTHFSLLRCLGLDSQ | not soluble
8 | MINITSMRDSFGDWAEKFLKSKEADGVSVSQLNSYKNYCRNHLSPLYMKSLSEILPADIQSIINETKLAKNTLKAIRNTASQIFRLAIENRAIDFNPADYVRIPKIAPEFHRDALEHHHHHH | soluble
9 | MTDYDLAKETAAWLNKQLQIRPVLGIVCGSGLGKIGDSLETSITVAYSDIPNFPVGSVKGHAGSLIFGSVNGVSCVCMKGRFHLYEGHTAARATFPMRVFKALGVKIVVLTNAAGGLNPSYRPGDFMVVRDHINLPGLAGANPLTGPNDDTEGERFPSMTSVYDKTLRKYAISAARELGMSYATHEGVYCCVNGPSFETPAECKILRLMGSDAVGMSTAPETIVAKHGGMRCLAVSLISNVIASNCETPAEPTHEEVLRAGEEASARMTALVKLVIEKIRGELPR | soluble
10 | MIEISTSSTTTTLLVAGDLDLAEREQFPEVTARVVGLRRQLLVIDMCRVTFMDSTGAAFLISLADAGRRRGGATVLRGAADRDLFVLEICGALELFRIDADHHCELGAELPSAPEGAPAPA | not soluble
11 | MRSVTLPLLMFCLGLAACSGDGGRRPSTCEVISPPDVMVPTEQNRQRVEQQSSGDPTAGQKPVECP | not soluble
12 | GPGSMRSVIRSCVIFPAAGVAMRHDSSQQWVLNVMYGTGLAPRYGSWKSFGVGDALKENDTPVLYCKALVHASGGGRRARDWVAGCSAALFPSYELLKIAMRHNSSEEDVERYRRHLVETLEKAQGPQTGSANDAGNVTSGEDGSKSDTENDTDINMRLSQMPEVRCFVYDAMRAACFHRYKKVPEEQRVKLFTVAARLGLDEGTTMAIWRLVEKEGIVARDKQRALESPWND | soluble
13 | MDLTNGGVSPAATSAPLDWTTFRRVFLIDDAWRPLMEPELANPLTAHLLAEYNRRCQTEEVLPPREDVFSWTRYCTPDEVRVVIIGQNPYHHPGQAHGLAFSVRANVPPPPSLRNVLAAVKNCYPEARMSGHGCLEKWARDGVLLLNTTLTVKRGAAASHSRIGWDRFVGGVIRRLAARRPGLVFMLWGTHAQNAIRPDPRVHCVLKFSNPSPLSKVPFGTCQHFLVANRYLETRSISPIDWSV | soluble
14 | MINARGETMARFTVVIPYYQKQHGVLGRALASVFAQTYQDFDLVIVDDESPYPIDQELAEISQEQKDRIVVIKQANAGPGGARNTGLDHVPDGTDYVAFLDSDDMWTPDHLRNAAFALNTYGGECYWASMQASDEFYYHFAISELEKNEGAARLSEKPLVIELPDLASVMLRNWSFLHLSCMVIGRPLFEKIRFDPALRLAAEDVLFFCDSILASKRTLLCDDAGAMRGMGVNIFHSIDNTSPEFLRQQFNTWVALDTLEGRFSRRPADVASIASYKNTARKQALWSQAGNLKRRRAPQFGLLFKWAMRDPALLRAAFELGAGKIVRSRLEHHHHHH | not soluble
15 | MGSDKIHHHHHHMTTIFIEKATILDAEKLTEIMTRTFDEEEKRWLCGQGDVIDYNIQPPGYSSVEMMRYSIEELDCYKVIMDGKIIGGIIVTISGKSYGRIDRIFVEPVYQGKGIGSYVIKLIEEEYPSIRIWDLETSSRQLNNHHFYKKMGYETIFKSEDEYCYVKRITVESAEENLIKNKDMKNSQYENCNLANTEYYQVNLKNSSFVGSNMMNMKMSNCNVRQSNFRNINFRNSSYADLNLSGSKFNFVTLGGVQFKDTSLGEDKDPISFNRCDLEGSTISNSNLKNMDIENCDITGMKINGIPIEKLLALYNKVKS | not soluble
16 | MNRRVVIVTAVHGPSAPFLPEAYASLCAQELPDGWEWRWVIQEDGRTQDVRPHVPDDPRVVFHQGRHGRQGGPGVARTMALAHADGAYVKVLDADDRLTPGALARDLAALEADPSIGWATSRVLDLLPDGSTAGFPGDPAHGPIERGEVLDFWRANGFRAQVHPATLLVRRDLLLAVGGWMALPASEDTGLLLALNCVSRGWFTEDVGLLYRKWEGQETGQASHVDPAERDARMTVVEARARALASFGWRLPEGTGDFDHLEHHHHHH | not soluble
17 | MGSDKIHHHHHHMSSHHETSENVVIKQADFIESVADALQYISYYHPKDFVDAMSEAYEREQSAAAKDAIAQILINSRMSAEGKRPLCQDTGIVTTFVKVGMGVKWDKTDMTIQQMVDEGVRRAYTNPDNPLRASIVADPAGSRKNTKDNTPSVVHIDMVPGNHVEVAIAAKGGGSENKAKMVMLNPSDDIAAWVEKTLPTMGAGWCPPGMLGIGIGGTAEKAAVLAKEALMESVDIHELMARGAQTTEEKLRLDIFERANNLGIGAQGLGGLTTVLDVKIKSAPTHAASKPVVMIPNCAATRHVHFHLDGTGPADLAPPSLSDWPEITREVGSDVRRVNLDTVTQADIEQWQSGETLLLSGKMLTGRDAAHKRIQSLIESGEGLPEGVDFTGKFIYYVGPVDPVGNEVVGPAGPTTATRMDKFTDLMLDKTGLMGMIGKAERGPATVESIKKHKAVYLMAVGGAAYLVSKAIKKSRVVAFADLGMEAIYEFDVQDMPVTVAVDSNGVNAHETGPAIWKVNIANANAKA | not soluble
18 | MSLKIIILGAGQVGGTLAENLAGENNDITIVDTDSDRLRELQDKFDLRVVNGHGAHPKVLREAGAQDADMLVAVTNSDETNMVACQVAYSLFNTPNKVARIRSPAYLVERDRLFLPESVPVDHLIAPEQLVTDYVRRLIEYPGALQVVDFAGGKVGLVAVKAYYGGPLVGNALSTLRDHMPNIETRVAAIFRQGRSIRPQGTTIIEADDEVFFVAAAGHIRAVMSELQRLESPYRRIMIVGGGNIGAGLARQLEKRYSVKLIERNQKRAEQLSEVLENTIVFCGDAADQELLAEEHIDQIDVFIAVTNEDEANIMSALLAKKMGAKKTMVLIQRSAYVDLVQGGSIDIAISPQQATISALLTHVRRADIANVYSLRRGAAEAIEAIAHGDENTSKVVGKTVGELKLPPGTTIGAIVRGDEVLIAHDRTQIQQDDHVVMFLVDKKYIPEVERLFQPSPFFLEGHHHHHH | soluble
19 | NIDEHSLFVNVGERTNVTGSKAFARLILNGGYAEGLVIARSQVENGAQIIDINMDEAMLDSQKAMVTFLNLLAAEPDISRLPIMLDSSKWSVIEAGLKCVQGKAVINSISLKEGEAEFLHHARLARRYGAAVIVMAFDETGQADTLQRKVEICTRCYHTLIEQADFPPEDIIFDPNIFAIATGIEEHSNYAVDFIEATHVIRQTLPYAKVSGGVSNVSFSFRGNEPIREAIHTAFLYHAVKAGMTMGIVNAGQLGVYSDIPPDLLEHVEDVLLNRRPDATERLVEFAEHFKGQKKEQIE | not soluble
20 | MGSDKIHHHHHHMTKHPLKSLAASVRAAIADPARTTFVGSDANPRFELFHAASSLCSQKVRTVLFEKQLPYRSNDMKILSSMGPDGVVPAEHYHAPYVGLRLIAGEEIGREFVSGYSGRTSVQTEGFDPCVVPLLVDYEASRVIADSRRICCYLDAVSRNPVQLVPEDADARALVMQQVDIVDRIPNGTLLYGFHPDADLRPEALRTVMESVYDYKVAALKAMIDANADNAELVSAYRAKIAKEQGGKSVRHDAALQRAARDHVAVLLADLDRLLGTSSPYLLGPHFSLGDVLWGVNLTRLAYLGLASMWKDRPNVIRYVNALLTRPSLRKEAVRATMDSMPPSRYFDVVSGTAEVASM | not soluble
